Consider 3 molecules from patent US20120058906A1 (published 2012).

Residue numbers refer to the chain shown, from its start.

For assay [1], the target named is T1, rHuman IGF-1 sR (insulin-like growth factor-1 soluble receptor), CF (R&D Systems Cat#391-GR) (human, UniProt P08069 31-932).
T1 construct: Bought soluble receptor; also called IGF-R1
Put plainly: MSD ECL titration, Fab 148.9 nM, blank 218.

The target in assay [2] is T2, rHuman P-Cadherin/Fc Chimera, CF (R&D Systems Cat#861-PC) (human, UniProt P22223 108-654).
T2 construct: Bought Fc chimera; Fc part of the bought chimera not given
Put plainly: MSD ECL titration, Fab 148.9 nM, blank 218.

For assay [3], the target named is T3, rHuman ErbB2/Fc Chimera, CF (R&D Systems Cat#1129-ER) (human, UniProt P04626 23-652).
T3 construct: Bought Fc chimera; also called HER2/neu; Fc part of the bought chimera not given
Nature of the assay: MSD ECL titration, Fab 148.9 nM, blank 218.

The target of assay [4] is T4, Recombinant Human DLL4 (R&D Systems Cat#1506-D4/CF) (human, UniProt Q9NR61 27-524).
T4 construct: Bought recombinant protein; also called rHuman DLL4; delta-like protein 4
Nature of the assay: MSD ECL titration, Fab 148.9 nM, blank 218.

In assay [5] the target is T5, rHuman HGF R/c-MET/Fc Chimera, CF (R&D Systems Cat#358-MT/CF) (human, UniProt P08581 25-932).
T5 construct: Bought Fc chimera; also called HGF R/Fc; Fc part of the bought chimera not given
Nature of the assay: MSD ECL titration, Fab 148.9 nM, blank 218.

Assay [6] concerns the target T6, rHuman CD44/Fc Chimera, CF (R&D Systems Cat#3660-CD) (human, UniProt P16070 21-220).
T6 construct: Bought Fc chimera; Fc part of the bought chimera not given
Put plainly: MSD ECL titration, Fab 148.9 nM, blank 218.

The target in assay [7] is T7, rHuman Erythropoietin R/Fc Chimera, CF (R&D Systems Cat#963-ER) (human, UniProt P19235 25-250).
T7 construct: Bought Fc chimera; also called EPO R/Fc; EPOR; Fc part of the bought chimera not given
T7 sequence: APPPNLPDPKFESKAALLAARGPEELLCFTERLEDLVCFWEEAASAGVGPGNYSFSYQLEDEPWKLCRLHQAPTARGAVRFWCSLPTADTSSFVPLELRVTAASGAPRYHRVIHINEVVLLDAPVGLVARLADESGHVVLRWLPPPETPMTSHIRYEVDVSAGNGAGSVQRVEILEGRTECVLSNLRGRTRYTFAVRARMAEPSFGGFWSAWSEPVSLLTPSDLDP
Nature of the assay: MSD ECL titration, Fab 148.9 nM, blank 218.

Assay [8] has as its target T8, rHuman Notch-1/Fc Chimera, CF (R&D Systems Cat#3647-TK) (human, UniProt P46531 19-526).
T8 construct: Bought Fc chimera; Fc part of the bought chimera not given
Put plainly: MSD ECL titration, Fab 148.9 nM, blank 218.

The target in assay [9] is T9, rHuman EGF R/Fc Chimera, CF (R&D Systems Cat#344-ER) (human, UniProt P00533 25-645).
T9 construct: Bought Fc chimera; Fc part of the bought chimera not given
Put plainly: MSD ECL titration, Fab 148.9 nM, blank 218.

Assay [10] addresses T10, rHuman HGF R/c-MET/Fc Chimera, CF (R&D Systems Cat#358-MT/CF) (human, UniProt P08581 25-932).
T10 construct: Bought Fc chimera; also called HGF R/Fc; not shown: Fc of the bought chimera
Put plainly: ECL (MSD multi-spot), antigen on plate, Fab 10 nM.

The target of assay [11] is T11, Recombinant Human DLL4 (R&D Systems Cat#1506-D4/CF) (human, UniProt Q9NR61 27-524).
T11 construct: Bought recombinant protein; also called delta-like protein 4
Nature of the assay: ECL (MSD multi-spot), antigen on plate, Fab 10 nM.

In assay [12] the target is T12, rHuman EGF R/Fc Chimera, CF (R&D Systems Cat#344-ER) (human, UniProt P00533 25-645).
T12 construct: Bought Fc chimera; also called ErbB-1; not shown: Fc of the bought chimera
Put plainly: ECL (MSD multi-spot), antigen on plate, Fab 10 nM.

Assay [13] concerns the target T13, rHuman P-Cadherin/Fc Chimera, CF (R&D Systems Cat#861-PC) (human, UniProt P22223 108-654).
T13 construct: Bought Fc chimera; also called CDH3; not shown: Fc of the bought chimera
Nature of the assay: ECL (MSD multi-spot), antigen on plate, Fab 10 nM.

The target in assay [14] is T14, rHuman ErbB2/Fc Chimera, CF (R&D Systems Cat#1129-ER) (human, UniProt P04626 23-652).
T14 construct: Bought Fc chimera; also called HER2/neu; not shown: Fc of the bought chimera
Put plainly: ECL (MSD multi-spot), antigen on plate, Fab 10 nM.

The target of assay [15] is T15, rHuman Notch-1/Fc Chimera, CF (R&D Systems Cat#3647-TK) (human, UniProt P46531 19-526).
T15 construct: Bought Fc chimera; not shown: Fc of the bought chimera
Put plainly: ECL (MSD multi-spot), antigen on plate, Fab 10 nM.

The target in assay [16] is T16, rHuman IGF-1 sR (insulin-like growth factor-1 soluble receptor), CF (R&D Systems Cat#391-GR) (human, UniProt P08069 31-932).
T16 construct: Bought soluble receptor; also called IGF-R1
Nature of the assay: ECL (MSD multi-spot), antigen on plate, Fab 10 nM.

The target in assay [17] is T17, rHuman Erythropoietin R/Fc Chimera, CF (R&D Systems Cat#963-ER) (human, UniProt P19235 25-250).
T17 construct: Bought Fc chimera; also called EPO R/Fc; Epo R; not shown: Fc of the bought chimera
T17 sequence: T7 sequence
Nature of the assay: ECL (MSD multi-spot), antigen on plate, Fab 10 nM.

For assay [18], the target named is T18, rHuman CD44/Fc Chimera, CF (R&D Systems Cat#3660-CD) (human, UniProt P16070 21-220).
T18 construct: Bought Fc chimera; not shown: Fc of the bought chimera
Nature of the assay: ECL (MSD multi-spot), antigen on plate, Fab 10 nM.

Assay [19] deals with T19, rHuman ErbB2/Fc Chimera, CF (R&D Systems Cat#1129-ER) (human, UniProt P04626 23-652).
T19 construct: Bought Fc chimera; also called human epidermal growth factor 2 receptor; HER2/neu; Fc part of the bought chimera not given
Put plainly: ECL (MSD Multi-Spot) binding, antigen spotted on plate; Fab 500 nM.
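Note: blank spot per well as comparator with Hit at signal to blank ratio of 4 or more.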

B1: Fab VH1-46_IGHD6-6*01_IGHJ1*01 & L6_IGKJ1*01 (Fab, V domains shown)
VH: QVQLVQSGAEVKKPGASVKVSCKASGYTFTSYYMHWVRQAPGQGLEWMGIINPSGGSTSYAQKFQGRVTMTRDTSTSTVYMELSSLRSEDTAVYYCAREEYSSSSAEYFQHWGQGTLVTVSS
VL: not shown
notes: Expressed in E. coli as Fab: heavy chain with CH1 plus Flag and His tags from Plasmid A, kappa light chain constant region from Plasmid C; also called Fab No. 1
B1: the ECL signal came to 322 in [1]; 687 in assay [2]; 247 in [3]; 16300 in [4]; 205 in assay [5]; 348 in assay [6]. The ECL signal in [7] amounted to 373; in [8] it was 375; in assay [9], 290.

B2: Fab VH1-46_IGHD6-6*01_IGHJ1*01_S102A_S103P_S104F & L6_IGKJ1*01_S30N (Fab, V domains shown)
VH: B1 VH with S102A, S103P, S104F
VL: EIVLTQSPATLSLSPGERATLSCRASQSVNSYLAWYQQKPGQAPRLLIYDASNRATGIPARFSGSGSGTDFTLTISSLEPEDFAVYYCQQRSNWPPWTFGQGTKVEIKR
notes: Fab
On to B2, for which the ECL signal in assay [10] worked out at 239 ECL signal; in assay [11], 33400 ECL signal; in [12], 245 ECL signal; in assay [13], 283 ECL signal; in assay [14] it was 274 ECL signal; in [15], 253 ECL signal. Besides, the results for the ECL signal in assay [16], in [17] and in assay [18] were 233 ECL signal, 420 ECL signal and 286 ECL signal, respectively.

B3: Fab VH1-46_IGHD6-6*01_IGHJ1*01_S102A_S103P_S104F_H111Y & L6_IGKJ1*01 (Fab, V domains shown)
VH: B1 VH with S102A, S103P, S104F, H111Y
VL: not shown
notes: Fab made in E. coli; The heavy chain also carries the CH1 with Flag and His tags of Plasmid A, and the light chain the kappa constant region of Plasmid C
B3 showed an ECL signal in assay [19] of 713.
